Biological target: the molecule itself
Assay: dynamic light scattering

B1: hPXR LBD (residues 140–434) with an N-terminal His tag and an SRC-1 fragment tethered at the C-terminus (domain or fragment)
chain: VQGLTEEQRMMIRELMDAQMKTFDTTFSHFKNFRLPGVLSSGCELPESLQAPSREEAAKWSQVRKDLCSLKVSLQLRGEDGSVWNYKPPADSGGKEIFSLLPHMADMSTYMFKGIISFAKVISYFRDLPIEDQISLLKGAAFELCQLRFNTVFNAETGTWECGRLSYCLEDTAGGFQQLLLEPMLKFHYMLKKLQLHEEEYVLMQAISLFSPDRPGVLQHRVVDQLQEQFAITLKSYIECNRPQPAHRFLFLKIMAMLTELRSINAQHTQRLLRIQDIHPFATPLMQELFGITGSGGSGGSSHSSLTERHKILHRLLQEGSPS
stoichiometry N: 2
